Measured values reported in US20160175384A1 (published 2016).
One block for each binder: values may come before it. Square brackets hold non-standard residues; d marks the D form. Side chains are listed from the residue outwards. * marks the point of attachment. IR800CW = near-infrared dye IRDye800CW (maleimide); Cy5 = Cy5 fluorescent dye (maleimide); d2Nal = N[C@H](Cc1ccc2ccccc2c1)C(=O)O; Butanoyl(4-Ph) = O=C(CCCc1ccccc1)*; Butanoyl(4-ethynyl) = C#CCCCC(=O)*; hPhe = N[C@@H](CCc1ccccc1)C(=O)O; Nle = CCCC[C@H](N)C(=O)O; Mpa = O=C(O)CCS

Columns and labels:
[1] = target: T1, human melanocortin 1 receptor (human, UniProt Q01726 1-317); assay: competitive binding vs Eu-NDP-alpha-MSH, time-resolved fluorescence, HCT116/hMC1R cells
T1 construct: whole, on cells; also called hMC1R; MC1R
Protocol: (§1) Competitive binding assays were performed using HCT116/hMC1R cells and HEK293/hMC4R or hMC5R as previously described, with slight modifications. HCT116/hMC1R cells were plated in black PerkinElmer 96-well plates and HEK293/hMC4R and HEK293/hMC5R cells were plated on SigmaScreen Poly-D-Lysine Coated Plates (SigmaAldrich), all at a density of 10,000-30,000 cells/well. Poly-D-Lysine Coated Plates contain a PDL polymer coating that creates a uniform positive charge at the surface of the plastic, thereby facilitating cell attachment, growth and differentiation. […] Both labeled and non-labeled ligands were diluted in binding media (DMEM, 1 mM 1,10-phenanthroline, 200 mg/L bacitracin, 0.5 mg/L leupeptin, 0.3% BSA). In the case of the triblock polymer micelle solutions, micelles were allowed to equilibrate in solution for a period of 30 min prior to cell addition. Cells were incubated with labeled and non-labeled ligands for 1 hour at 37° C. Following incubation, cells were washed three times with wash buffer (50 mM Tris-HCl, 0.2% BSA, 30 mM NaCl) and 50 µL of enhancement solution (PerkinElmer) was added to each well. Cells were incubated for an additional 30 min at 37° C. prior to reading. […] Competition curves were analyzed with GraphPad Prism software using the sigmoidal dose-response (variable slope) classical equation for nonlinear regression analysis.

[2] = target: T1, human melanocortin 1 receptor; assay: competitive binding vs Eu-NDP-alpha-MSH, HCT116/hMC1R cells
[3] = target: T1, human melanocortin 1 receptor; assay: ratio of Ki values (MC4R over MC1R) from Eu-NDP-alpha-MSH competitive binding
[4] = target: T2, human melanocortin 4 receptor (human, UniProt P32245 1-332); assay: competitive binding vs Eu-NDP-alpha-MSH, time-resolved fluorescence, HEK293/hMC4R cells
T2 construct: whole, on cells; also called hMC4R; MC4R
Protocol: as §1

[5] = target: T3, human melanocortin 5 receptor (human, UniProt P33032 1-325); assay: competitive binding vs Eu-NDP-alpha-MSH, time-resolved fluorescence, HEK293/hMC5R cells
T3 construct: whole, on cells; also called hMC5R; MC5R
Protocol: as §1

[6] = target: T1, human melanocortin 1 receptor; assay: ratio of Ki values (MC5R over MC1R) from Eu-NDP-alpha-MSH competitive binding
[7] = target: T1, human melanocortin 1 receptor; assay: cell-based or functional assay
[8] = target: MC5R expressed in the kidneys of the xenograft-bearing mice; assay: cell-based or functional assay
[9] = target: T1, human melanocortin 1 receptor; assay: competition binding vs Eu-NDP-a-MSH, time-resolved fluorescence, A375/hMC1R cells

T3 sequence (P33032 whole entry): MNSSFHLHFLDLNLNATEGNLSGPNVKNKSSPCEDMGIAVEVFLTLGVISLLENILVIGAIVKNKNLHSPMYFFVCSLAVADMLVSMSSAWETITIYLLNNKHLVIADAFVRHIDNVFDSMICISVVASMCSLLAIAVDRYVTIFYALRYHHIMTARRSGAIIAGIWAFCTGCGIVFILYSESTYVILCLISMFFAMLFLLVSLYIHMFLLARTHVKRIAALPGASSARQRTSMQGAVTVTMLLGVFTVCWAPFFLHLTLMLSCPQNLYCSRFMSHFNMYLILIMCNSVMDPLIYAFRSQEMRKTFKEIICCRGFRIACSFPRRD
T1 sequence (Q01726 whole entry): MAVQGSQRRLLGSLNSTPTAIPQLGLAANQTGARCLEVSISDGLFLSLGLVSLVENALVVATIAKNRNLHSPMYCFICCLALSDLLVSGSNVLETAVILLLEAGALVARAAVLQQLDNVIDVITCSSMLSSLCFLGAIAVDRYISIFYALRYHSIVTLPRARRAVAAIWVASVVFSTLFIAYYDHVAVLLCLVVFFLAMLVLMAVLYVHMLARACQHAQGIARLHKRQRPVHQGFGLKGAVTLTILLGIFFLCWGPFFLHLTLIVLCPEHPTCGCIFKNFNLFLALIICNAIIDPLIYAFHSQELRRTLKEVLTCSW
T2 sequence (P32245 whole entry): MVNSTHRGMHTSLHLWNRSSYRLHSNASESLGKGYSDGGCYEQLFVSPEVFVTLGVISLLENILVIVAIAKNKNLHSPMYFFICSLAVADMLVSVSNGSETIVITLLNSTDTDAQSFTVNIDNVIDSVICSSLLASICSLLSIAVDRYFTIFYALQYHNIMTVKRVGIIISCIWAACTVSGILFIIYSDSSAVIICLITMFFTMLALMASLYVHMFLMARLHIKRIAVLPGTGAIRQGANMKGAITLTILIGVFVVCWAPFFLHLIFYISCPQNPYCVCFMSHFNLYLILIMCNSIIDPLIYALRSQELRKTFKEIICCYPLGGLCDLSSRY
MC5R expressed in the kidneys of the xenograft-bearing mice, sequence (P41149 whole entry): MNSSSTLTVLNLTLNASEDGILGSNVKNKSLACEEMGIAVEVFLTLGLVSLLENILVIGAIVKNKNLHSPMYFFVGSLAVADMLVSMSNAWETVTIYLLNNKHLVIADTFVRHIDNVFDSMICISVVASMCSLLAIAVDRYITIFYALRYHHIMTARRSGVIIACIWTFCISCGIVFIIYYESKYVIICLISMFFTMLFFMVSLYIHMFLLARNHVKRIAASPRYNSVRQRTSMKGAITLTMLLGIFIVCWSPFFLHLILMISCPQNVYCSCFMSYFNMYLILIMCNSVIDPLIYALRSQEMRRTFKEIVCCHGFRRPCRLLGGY

Ki [1]: 0.24 nM
Ki [2]: 1.17 nM
B1: 4-phenylbutyryl-His-DPhe-Arg-Trp-Gly-Lys(hex-5-ynoyl)-NH2 (peptide)
peptide: {Butanoyl(4-Ph)}-H[dF]RWGK(Butanoyl(4-ethynyl))-NH2
SMILES: C#CCCCC(=O)NCCCC[C@H](NC(=O)CNC(=O)[C@H](Cc1c[nH]c2ccccc12)NC(=O)[C@H](CCCNC(=N)N)NC(=O)[C@@H](Cc1ccccc1)NC(=O)[C@H](Cc1c[nH]cn1)NC(=O)CCCc1ccccc1)C(N)=O
notes: Synthetic; alkyne-functionalised form of compound 1; also called compound 4

1R/4R (selectivity ratio against MC4R) [3]: 1.05
Ki [4]: 4.4 nM
Ki [1]: 4.19 nM
Ki [5]: 3.9 nM
1R/5R (selectivity ratio against MC5R) [6]: 0.93
B2: H-Lys(hex-5-ynoyl)Tyr-Val-Nle-Gly-His-DNal(2′)-Arg-DPhe-Asp-Arg-Phe-Gly-NH2 (peptide)
peptide: H-K(Butanoyl(4-ethynyl))YV[Nle]GH[d2Nal]R[dF]DRFG-NH2
SMILES: C#CCCCC(=O)NCCCC[C@H](N)C(=O)N[C@@H](Cc1ccc(O)cc1)C(=O)N[C@H](C(=O)N[C@@H](CCCC)C(=O)NCC(=O)N[C@@H](Cc1c[nH]cn1)C(=O)N[C@H](Cc1ccc2ccccc2c1)C(=O)N[C@@H](CCCNC(=N)N)C(=O)N[C@H](Cc1ccccc1)C(=O)N[C@@H](CC(=O)O)C(=O)N[C@@H](CCCNC(=N)N)C(=O)N[C@@H](Cc1ccccc1)C(=O)NCC(N)=O)C(C)C
notes: Synthetic; alkyne analogue of ligand 7; also called compound 8; ligand 8

probe-related fluorescence signal in A375/MC1R tumors after co-injection of 0.25 ug NDP-a-MSH, relative to the unblocked tumor, 2 hr after injection [7]: 1.54 fold
probe-related fluorescence signal in A375 tumor after co-injection of 0.25 ug NDP-a-MSH, relative to the unblocked tumor, 2 hr after injection [7]: 1.4 fold
renal uptake of MC1RL-800 after co-injection of 1 nmol/kg MC4R/5R-selective ligand (SEQ ID NO:10), compared to control animals, 2 hr after injection [8]: 1.56 fold
Ki [9]: 0.4 nM
B3: 4-phenylbutyryl-His-DPhe-Arg-Trp-Gly-Lys(Mpr-IR800CW)-NH2 (peptide)
peptide: {Butanoyl(4-Ph)}-H[dF]RWGK([Mpa-IR800CW])-NH2
notes: Near-infrared dye conjugate of the MC1R ligand; also called MC1RL-800; MC1RL-800 probe

Ki [9]: 0.3 nM
B4: MC1R-Cy5 probe (peptide)
peptide: {Butanoyl(4-Ph)}-H[dF]RWGK([Mpa-Cy5])-NH2
notes: also called Cy5 conjugated ligand; MC1R-635 probe

Ki [1]: 1.77 nM
Ki [5]: 58.2 nM
Binder: Ac-[hPhe]H[dF]RW-NH2 (Synthetic; also called compound 2) [Ac-Homophenylalanine-His-DPhe-Arg-Trp-NH2]

Ki [5]: 0.76 nM
B5: H-Tyr-Val-Nle-Gly-His-DNal(2′)-Arg-DTrp-Asp-Arg-Phe-Gly-NH2 (peptide)
peptide: YVLGHXRWDRFG
modifications: Nle; DNal(2′); DTrp; C-terminal amide (NH2)
notes: Synthetic; also called compound 5; ligand 5

1R/4R (selectivity ratio against MC4R) [3]: 0.13
Ki [4]: 0.77 nM
Ki [1]: 5.64 nM
Ki [5]: 0.71 nM
1R/5R (selectivity ratio against MC5R) [6]: 0.13
B6: H-Tyr-Val-Nle-Gly-His-DNal(2′)-Arg-DPhe-Asp-Arg-Phe-Gly-NH2 (peptide)
peptide: H-YV[Nle]GH[d2Nal]R[dF]DRFG-NH2
SMILES: CCCC[C@H](NC(=O)[C@@H](NC(=O)[C@@H](N)Cc1ccc(O)cc1)C(C)C)C(=O)NCC(=O)N[C@@H](Cc1c[nH]cn1)C(=O)N[C@H](Cc1ccc2ccccc2c1)C(=O)N[C@@H](CCCNC(=N)N)C(=O)N[C@H](Cc1ccccc1)C(=O)N[C@@H](CC(=O)O)C(=O)N[C@@H](CCCNC(=N)N)C(=O)N[C@@H](Cc1ccccc1)C(=O)NCC(N)=O
notes: Synthetic; also called compound 7; ligand 7

Ki [1]: 0.17 nM
B7: 4-phenylbutyryl-His-DPhe-Arg-Trp-NH2 (peptide)
peptide: {Butanoyl(4-Ph)}-H[dF]RW-NH2
notes: Synthetic peptidomimetic; also called compound 1
